Source: the DeepSol protein solubility set

Assay: soluble on expression in E. coli; label from the status in PepcDB or PDB records

| Sequence | soluble on expression in E. coli |
| --- | --- |
| MPFFANSDPMMSKLSQIQFADAPTLKGDKYPDVDAHRIIAPIISPIMEVFDQMKENQRARDQAEKIRKDREDHPLSTSRSLWEMFQRLQRPTTTTTEAPPLIERLFKPYIEPWQKQLDDFSKDMAGITLIPTTTTTPAPTTTTTPNFLEKSLSMFFPSLRRKPQSIPTLPPTTTPTPRLFDPEMFDRLFFKRDKRQATIAPAPKFDIFTVPPPPPLFQEWEKPILSLSNPFTLNPLMKMFTTPSPPQTLAPLPKIPEPNPYEIKKGLPEPQFKLQDPFYNPLFPSRKSKMFDFLAGGEAGRLLG | not soluble |
| MPFLPPLTPPTELYLGIQLPSPISILVNYLPVSQTPIETLRNLVYSCDINTLAIDEFMTWPSLLQPGSPFRPYFEVLVERGSIPAVYLEGVRQASNFVTVAQGLSVMTTVALSDPFACFATGLFLTCTGNHLDFLPISEKFWEMTPTLEAGHAVAEMVMYHISQLHTENARRWERSWRFVHLPSCVGQCTFHHGCRVCFFYWYAREMAIFY | soluble |
| MPFTLGQRWISDTESELGLGTVVAVDARTVTLLFPSTGENRLYARSDSPVTRVMFNPGDTITSHDGWQMQVEEVKEENGLLTYIGTRLDTEESGVALREVFLDSKLVFSKPQDRLFAGQIDRMDRFALRYRARKYSSEQFRMPYSGLRGQRTSLIPHQLNIAHDVGRRHAPRVLLADEVGLGKTIEAGMILHQQLLSGAAERVLIIVPETLQHQWLVEMLRRFNLRFALFDDERYAEAQHDAYNPFDTEQLVICSLDFARRSKQRLEHLCEAEWDLLVVDEAHHLVWSEDAPSREYQAIEQLAEHVPGVLLLTATPEQLGMESHFARLRLLDPNRFHDFAQFVEEQKNYRPVADAVAMLLAGNKLSNDELNMLGEMIGEQDIEPLLQAANSDSEDAQSARQELVSMLMDRHGTSRVLFRNTRNGVKGFPKRELHTIKLPLPTQYQTAIKVSGIMGARKSAEDRARDMLYPERIYQEFEGDNATWWNFDPRVEWLMGYLTSHRSQKVLVICAKAATALQLEQVLREREGILAAVFHEGMSIIERDRAAAWFAEEDTGAQVLLCSEIGSEGRNFQFASHMVMFDLPFNPDLLEQRIGRLDRIGQAHDIQIHVPYLEKTAQSVLVRWYHEGLDAFEHTCPTGRTIYDSVYNDLINYLASPDQTEGFDDLIKSCREQHEALKAQLEQGRDRLLEIHSNGGEKAQALAESIEEQDDDTNLIAFAMNLFDIIGINQDDRGDNMIVLTPSDHMLVPDFPGLSEDGITITFDREVALAREDAQFITWEHPLIRNGLDLILSGDTGSSTISLLKNKALPVGTLLVELIYVVEAQAPKQLQLNRFLPPTPVRMLLDKNGNNLAAQVEFETFNRQLNAVNRHTGSKLVNAVQQDVHAILQLGEAQIEKSARALIDAARNEADEKLSAELSRLEALRAVNPNIRDDELTAIESNRQQVMESLDQAGWRLDALRLIVVTHQ | not soluble |
| MPGAVDFKERISRQRPHDRETYGHAGNTDLQDIVYQLESDRGRIVNSAAVRRLQQKTQVFPLERNAAVRSRLTHSLEVQQTGRFIVRTLFRQLGPRAAEVGLDGLEGALESLVEMACLMHDVGNPPFGHFGEYAINDWFERNLDALFERRIPPGQGDGLLQQRMLTDLKHFEGNAQAIRLVVKLLRLNLTYTQTAGLLKYVRPAYEPKPDKAAANHYLNKKPGFYLSEEAFVDELRRVLGMRPGTRHPVAYIMEAADDISYCLADIEDSVEKGILDIRQLADLLVKKFAVHHSPDAPIPGDADNMSFQRMVDYSLEKAEREPINKVSEFFIRLRVKMIHPLVQHAAQQFIDNFEAVHAGTLGRALMEDGSLPHAIVQTFKDVAMEWVFCHPEVETLELQGYRIIQGLLDFYAPLLRLPAEEFQALAEGRQAAAPHPQLLVRRLPSQQIKAYLEAMKGVAEDPLQRQWEFYHRCRMLQDFVSGMTDQHAQDEYRALSAL | not soluble |
| MPGIRGPSEYSQEPPRHPSLKVNAKEPFNAEPPRSALVSSYVTPVDLFYKRNHGPIPIVDHLQSYSVTLTGLIQNPRKLFIKDIRSLPKYNVTATLQCAGNRRTAMSKVRNVRGVGWDVSAIGNAVWGGAKLADVLELVGIPKLTASTNLGARHVEFVSVDRCKEENGGPYKASITLSQATNPEADVLLAYEMNGETLNRDHGFPLRVVVPGVIGARSVKWLDSINVIAEESQGFFMQKDYKMFPPSVNWDNINWSSRRPQMDFPVQSAICSVEDVQMVKPGKVSIKGYAVSGGGRGIERVDISLDGGKNWVEASRTQEPGKQYISEHSSSDKWAWVLFEATIDVSQTTEVIAKAVDSAANVQPENVESVWNLRGVLNTSWHRVLLRLGHSNL | soluble |
| MPHNPIRVVVGPANYFSHPGSFNHLHDFFTDEQLSRAVWIYGKRAIAAAQTKLPPAFGLPGAKHILFRGHCSESDVQQLAAESGDDRSVVIGVGGGALLDTAKALARRLGLPFVAVPTIAATCAAWTPLSVWYNDAGQALHYEIFDDANFMVLVEPEIILNAPQQYLLAGIGDTLAKWYEAVVLAPQPETLPLTVRLGINNAQAIRDVLLNSSEQALSDQQNQQLTQSFCDVVDAIIAGGGMVGGLGDRFTRVAAAHAVHNGLTVLPQTEKFLHGTKVAYGILVQSALLGQDDVLAQLTGAYQRFHLPTTLAELEVDINNQAEIDKVIAHTLRPVESIHYLPVTLTPDTLRAAFKKVESFKA | soluble |
| MPHNSVKHSTRLDVIPLKTAEKHPNSQRRFHVMSKPGGSKCNLDCQYCFYLHKDELLHQPKQPMMDDTTLEAFIKSYIESQDGHEIVFSWQGGEPTLLGLDYFKKIVQLQNKYRPSGVKIENDLQTNGILLNDEWCQFLKDNGFLVGLSIDGPKELHDKYRVTRSGKPTFNLVMAAAKRLQEHHVPFNSLVVVNRHNAKHPLDVYRFLTKELGATYIQFTPCVEAKDFTTTAPQFWNETMIPNKGSELAKPGHPMSIVTDWSVDPDDWGNFLNTVFVEWVNNDLGRVLVNLFETAVAQVMGKESQLCVTAEFCGKGLAMEHNGDVFSCDHYVYPEYKLGNIHDRGLNEFAFSIRQHGFGMAKRDSLPSYCKSCPHLKLCWGECPKNRLINTPNGEPGLNYLCSGIRAFFDESLPMLTGLSVLLQRQENTQK | not soluble |
| MPHTNGKGGGAQKWAGNNKRKRNFDGEQDPSVRKALKEKRLLKKRKQDLKGQEETMLDEVEQKYQEMLKKSSRTFLRFEDFPLSWRTLEGLKDNDYTKPTEIQRDTIAYSLTGSDVVGAAKTGSGKTLALVIPVLEALWRAKWSPDYGLGALIISPTRELALQTFSTINAVGAHHGFSCGLVIGGSDVAFERNRISGINIIVCTPGRLLQHMDENAQMSCDSLQVLVLDEADRMLDMGFSKQLNSIINNLPAERQTLLFSATQTRNVKDLCRVCTNDPVFVSVHENASAATPDNLKQSYVIVEEEHKINALWSFIEAHRKKKSLVFVSSCKQARFLTEAFSQLRPGLPVMGLWGTMNQKKRIETFTKFDESKAAVLIATDVASRGLDFEHIDWVIQVDCPAQIDDYIHRVGRSARMDDSGNSLLMVSPSQEEAMIGKLEKHSIPIEELKIHPDAMSDVRVKLRAILAESQELKEYAQKSIVAYLRSIYTMKDKKVFDVEAIDAAALADSFGLVSVPRVRFLNKKAKKSGEKLMEKEVKEEEEEASLVGKFAIDEDDEDIFTVKKPTGEPEQIKEEEAAEKISNITISKTKPLKKAVTKVSAAKKILNKKLKVNTKKTFGAEDDELEELEEGPSTITSYGLDIEKARQEIKSGDKEDRKRFKLLREQRRQEKLAKKNRRAEEEEAVEYDEDGSEDEPDISWLPDPDAVRRKYEEEPDEVEDLEQQALAALGRK | not soluble |
| MPIATVCTWPAETEGGSTVVAADHASNYARKLGIQRDQLIQEWGWDEDTDDDIRAAIEEACGGELLDEDTDEVIDVVLLWWRDGDGDLVDTLMDAIGPLAEDGVIWVVTPKTGQPGHVLPAEIAEAAPTAGLMPTSSVNLGNWSASRLVQPKSRAGKR | soluble |
| MPIRAMEKATAGKLLTRAEALSLLTEGDLLALGRLADAVRRRMHPENLVTFVVDRNVNYTNVCESKCKFCAFYRDEAAPDAYLLAEEAIFAKIAELVEHGGTQLLMQGGLHPQLGIDWFEDLFRGIKARFPQVQNHSLSPAEITQIATVSKLTIPETVRRLREAGLDSIPGGGAEILVDSVRQEISPRKIGWEGWAAVMSEAARQGMATTATMMFGSRETPEDIVEHLFRVRELQAAGGSFTAFIPWTYQPGNTELGGTGATGVEYLKVLALSRIVLDNIPSIQASWVTQGAAMAQVSLFFGANDLGGTMLEENVVAAAGCTFRMSREEMVELIREAGFRAAQRTTLYSIIREY | not soluble |
| MPITIGNGFLKSEILTNSPRNTKEAWWKVLWEKIKDFFFSTGKAKADRCLHEMLFAERAPTRERLTEIFFELKELACASQRDRFQVHNPHENDATIILRIMDQNEENELLRITQNTDTFSCEVMGNLYFLMKDRPDILKSHPQMTAMIKRRYSEIVDYPLPSTLCLNPAGAPILSVPLDNIEGYLYTELRKGHLDGWKAQEKATYLAAKIQSGIEKTTRILHHANISESTQQNAFLETMAMCGLKQLEIPPPHTHIPIEKMVKEVLLADKTFQAFLVTDPSTSQSMLAEIVEAISDQVFHAIFRIDPQAIQKMAEEQLTTLHVRSEQQSGCLCCFLLEHHHHHH | soluble |
| MPKHIIDEIESLSLATGFILKNGDFTEEKSLLVKPTMGGTWHWSPIKGLHSQDSIRKTRAYILQEIARMTIYPEAGVSPTLRRKKGIVIGVARAVSTELYHIVENDLIEEEMDTAKLAVGYDGETIVIKNDVDSKWKEELSKPLNLSETENKVIQRLLLISHGVIPLQGYSLVTTSHHYNDKSKRAFSAVERQFFSRCDQLSWWKEDEEALRDAMWHKAGHPVKISFKKEIACSITIKQSLANAGIGSVACRLPATEDVVWKAEAYRNLLKTLSPIFDDEVKWEALDEMLSYLNHFSAARPTEVVTVHNAPTHLMSLDTREKVVTWIAQWCSQNAEKVAICLGFHTALLENAGKFPGPSYSLMVLRTNVDSYILGTKLFSDYTVFKAKLRQLMDSVS | soluble |
| MPKKILFTGGGTVGHVTLNLILIPKFIKDGWEVHYIGDKNGIEHTEIEKSGLDVTFHAIATGKLRRYFSWQNLADVFKVALGLLQSLFIVAKLRPQALFSKGGFVSVPPVVAAKLLGKPVFIHESDRSMGLANKIAYKFATTMYTTFEQEDQLSKVKHLGAVTKVFKDANQMPESTQLEAVKEYFSRDLKTLLFIGGSAGAHVFN | not soluble |
| MPKMIMVNKKASESQVMELEKRNYNNPVVLCGFAGSTPTGVLAASYIVETLGMHQVAHLISQHIPPVAVFVGGKLRHPFRIYANNSNTVLVAMCEVPISSAHIYEISNTLMNWIDQVGASEIVIMEGSPANGIPEERPVFAVAEKPKLDKFKKAGIQPADSAIIAGMGGGILNECLVRKITGLSFITPTSVDIPDPGAVLSIIEAINKAYNLKIKTDLLEEQVKALDEQIKKIEEQYKELQEKQKEPQSMYG | soluble |
| MPKNTKKSQGNKKLEMTNKQFDDLLKEMGGLPEGMNLDPELLAVLRQATNAEFNKVAKEKYGDVPEGSDDDEEQQTSEQNKEQQQSSSSKST | not soluble |
